# Experimental data published in US20110294195A1.
# Molecular target: CD81 on Huh7.5 cells (human) (UniProt P60033)
# Experiment: cell-based or functional assay
# Sequence of UniProt P60033 (P60033 whole entry): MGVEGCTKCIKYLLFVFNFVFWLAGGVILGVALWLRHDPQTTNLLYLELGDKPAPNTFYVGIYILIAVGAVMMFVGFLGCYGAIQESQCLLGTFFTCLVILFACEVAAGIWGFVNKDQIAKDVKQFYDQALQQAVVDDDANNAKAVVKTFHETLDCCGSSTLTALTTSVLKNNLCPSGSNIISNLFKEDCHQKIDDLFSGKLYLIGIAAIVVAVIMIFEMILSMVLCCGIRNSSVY
substance,measurement,value
"anti-CD81 (JS-81; BD Biosciences Pharmingen, Franklin Lakes, N.J.) (antibody)",% inhibition of infection of Huh7.5 cells (FFU) with genotype 2a recombinant J6/JFH1 at 0.02 µg/mL anti-CD81,< 50 % inhibition
same,% inhibition of infection of Huh7.5 cells (FFU) with genotype 2a recombinant J6/JFH1 at 2.5 µg/mL anti-CD81,> 90 % inhibition
same,% inhibition of infection of Huh7.5 cells (FFU) with genotype 7a recombinant QC69/JFH1 at 0.02 µg/mL anti-CD81,< 50 % inhibition
same,% inhibition of infection of Huh7.5 cells (FFU) with genotype 7a recombinant QC69/JFH1 at 2.5 µg/mL anti-CD81,> 90 % inhibition
